This note sets out measurements from patent US20120208291A1.

The target in the assay is acceptor complex of syntaxin linked to SNAP-25 (UniProt O16000). In words: KISMI single-molecule imaging.
UniProt O16000, sequence (O16000 1-265, one chain of several): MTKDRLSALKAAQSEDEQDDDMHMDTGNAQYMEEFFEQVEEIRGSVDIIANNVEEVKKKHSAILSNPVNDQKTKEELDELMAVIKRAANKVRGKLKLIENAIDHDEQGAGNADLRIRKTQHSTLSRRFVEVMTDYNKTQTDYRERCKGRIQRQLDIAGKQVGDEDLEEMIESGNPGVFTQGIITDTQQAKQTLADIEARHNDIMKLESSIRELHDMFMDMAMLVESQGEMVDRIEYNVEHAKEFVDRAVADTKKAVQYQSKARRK

Regarding “synaptobrevin (from UniProt O02495 1-86)”, the Kd turned out to be 1.7 µM.
